Assay results published in article PMC5118804.

Key:
[1] = target: MS2V5-eIF4G 84-295 (eIF4G deletion mutant that only contains the interaction site for PABPC1) (UniProt Q04637)
[2] = target: FLAGemGFP-tagged PAIP2 PAM2 (PAM2 motif of PABP-interacting protein 2)
[3] = target: FLAGemGFP-tagged eRF3a PAM2 (overlapping N- and C-terminal PAM2 motifs of eukaryotic release factor 3a)
[4] = target: FLAGemGFP-tagged eRF3a -C PAM2 (C-terminal PAM2 motif of eRF3a)
[5] = target: FLAGemGFP-tagged eRF3a -N PAM2 (N-terminal PAM2 motif of eRF3a)
[6] = target: FLAGemGFP-tagged PAIP2 PAM2 (PAM2 motif of PABP-interacting protein 2); remark: listed apart in the source

Sequence of UniProt Q04637 (Q04637 84-295, stated change not applied): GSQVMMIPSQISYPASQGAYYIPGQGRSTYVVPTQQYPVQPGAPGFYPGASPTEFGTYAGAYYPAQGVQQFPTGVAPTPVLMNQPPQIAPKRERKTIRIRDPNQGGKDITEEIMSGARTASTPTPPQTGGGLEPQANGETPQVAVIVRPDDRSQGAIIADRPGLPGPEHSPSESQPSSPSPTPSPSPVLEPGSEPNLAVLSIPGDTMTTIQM

reporter mRNA level (TPI-4MS2 reporter with the SMG5 3' UTR, Northern blot, HeLa) upon tethering MS2V5-eIF4G 84-295, relative to MS2V5-GST [1]: 5 fold | reporter mRNA level (TPI-4MS2 reporter with the SMG5 3' UTR, Northern blot, HeLa) upon tethering MS2V5-PAIP2 PAM2, relative to MS2V5-SYNZIP 1 (Fig. 2c) [2]: 4 fold | reporter mRNA level (FLAG-TPI-4MS2-SMG5, Northern blot, HeLa) upon tethering the MS2V5-tagged overlapping eRF3a PAM2 motif, relative to MS2V5-GST (Fig. 3b) [3]: 5 fold | reporter mRNA level (FLAG-TPI-4MS2-SMG5, Northern blot, HeLa) upon tethering the MS2V5-tagged C-terminal eRF3a PAM2 motif (Fig. 3b) [4]: 5 fold | reporter mRNA level (FLAG-TPI-4MS2-SMG5, Northern blot, HeLa) upon tethering the MS2V5-tagged N-terminal eRF3a PAM2 motif (Fig. 3b) [5]: 5 fold | reporter mRNA level (beta-globin 4MS2/4PP7 double tethering reporter, Northern blot, HeLa) upon tethering MS2V5-PAIP2 PAM2 upstream of PP7-tethered BTZ, relative to GST upstream of BTZ (Fig. 5d) [6]: 8 fold | reporter mRNA level (beta-globin 4MS2/4PP7 double tethering reporter, Northern blot, HeLa) upon tethering MS2V5-PAIP2 PAM2 upstream of PP7-tethered RNPS1, relative to GST upstream of RNPS1 (Fig. 5c) [6]: 6 fold
Substance: cytoplasmic poly(A)-binding protein (PABPC1) (from UniProt P11940 1-636) (natural protein)
